This assay has as its target T1, interferon-alpha/beta receptor alpha chain (IFNAR1) (UniProt P17181 28-436, limits assumed).
T1 sequence (looked up): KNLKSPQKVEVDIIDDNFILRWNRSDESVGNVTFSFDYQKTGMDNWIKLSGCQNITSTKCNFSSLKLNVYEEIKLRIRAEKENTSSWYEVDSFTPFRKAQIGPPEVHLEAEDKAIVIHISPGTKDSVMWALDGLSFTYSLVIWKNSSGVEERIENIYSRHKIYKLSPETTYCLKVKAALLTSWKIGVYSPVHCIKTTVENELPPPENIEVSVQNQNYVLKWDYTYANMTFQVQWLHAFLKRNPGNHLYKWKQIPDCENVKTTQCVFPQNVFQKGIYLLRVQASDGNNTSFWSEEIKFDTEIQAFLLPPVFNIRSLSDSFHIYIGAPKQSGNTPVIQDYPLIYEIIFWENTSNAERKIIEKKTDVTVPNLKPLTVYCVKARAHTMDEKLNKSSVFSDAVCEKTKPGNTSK
Put plainly: intrinsic fluorescence quenching of IFNAR1 titrated with peptide, double-log plot, 298 K. Here is the method: […] Protein intrinsic fluorescence experiments were carried out at constant IFNAR1 concentration titrated with different concentrations of IFNβ analog peptide to reach a maximum molar ratio of the IFNβ analog peptide-IFNAR1, and the complex maximum molar ratio of the IFNβ analog peptide-IFNAR1 was 10.
In these experiments, 1.0 ml solution with a fixed concentration of the […] was precisely added into the quartz cell with a 1 cm path length and was manually titrated by successive additions of the IFNβ analog peptide at 5 min time intervals. The fluorescence emission spectra were then measured, and the maximum fluorescence intensity at a wavelength of about 340 nm was used to calculate the binding constant parameters.
Fluorescence quenching data from the interaction of the IFNβ analog peptide and IFNAR1 were analyzed to obtain various binding parameters. The binding constant (Kₐ) and the number of binding (n) were calculated according to the Eq. 1, where F₀ is the fluorescence emission intensities of IFNAR1 in the absence of the IFNβ analog peptide, F is the fluorescence emission intensities of IFNAR1 in the presence of the IFNβ analog peptide, [P] is the IFNβ analog peptide concentration, Kₐ is the binding constant, and n is the apparent molar ratio of [IFNβ analog peptide]/[IFNAR1] complex.

On to MLQNGRDVRKRGFSDTGLRKLGRVNLL (also called MSPEP27) [IFNβ analog peptide with SEQ ID No. 2], for which the Ka was 3.67e+07 M⁻¹.

The values above are taken from US20190092832A1 (published 2019).
